Laboratory results: the Human Domainome abundance scans (Beltran et al. 2025)
± gives the uncertainty stated by the source.

B1: Far upstream element-binding protein 1, residues 98 to 169; numbered along this chain, Q96AE4 (parent)
chain: RSVMTEEYKVPDGMVGFIIGRGGEQISRIQQESGCKIQIAPDSGGLPERSCMLTGTPESVQSAKRLLDQIVE
B2: Gamma-crystallin C, residues 91 to 170; numbered along this chain, P07315 (parent)
chain: RLYEREDHKGLMMELSEDCPSIQDRFHLSEIRSLHVLEGCWVLYELPNYRGRQYLLRPQEYRRCQDWGAMDAKAGSLRRV

Variants of: B1
Experiment: abundance fitness (aPCA) (normalised: wild type 0, dead -1); higher = more abundant; growth selection in yeast, the domain comes from the species named
Details: Homo sapiens
Q69W showed an abundance fitness of -0.274 ± 0.029.
Work on Q69Y yielded an abundance fitness of -0.162 ± 0.039.
For I70A, the abundance fitness was 0.062 ± 0.028.
In the case of I70C, the abundance fitness is reported as 0.004 ± 0.038.
Work on I70E yielded an abundance fitness of 0.001 ± 0.03.
With I70F the abundance fitness was 0.024 ± 0.045.
Work on I70G yielded an abundance fitness of -0.11 ± 0.025.
I70H showed an abundance fitness of -0.062 ± 0.042.
I70K showed an abundance fitness of -0.03 ± 0.031.
For I70N, the abundance fitness was -0.142 ± 0.04.
In the case of I70P, the abundance fitness is reported as -0.259 ± 0.032.
I70Q gave an abundance fitness of -0.019 ± 0.031.
For I70R, the abundance fitness was -0.013 ± 0.024.
For I70S, the abundance fitness was -0.046 ± 0.028.
For I70V, the abundance fitness was 0.001 ± 0.027.
Variant I70W has an abundance fitness of -0.02 ± 0.029.
With I70Y the abundance fitness was -0.003 ± 0.04.
In the case of V71A, the abundance fitness is reported as -0.036 ± 0.029.
Variant V71C has an abundance fitness of -0.044 ± 0.037.
Work on V71D yielded an abundance fitness of -0.114 ± 0.038.
V71E showed an abundance fitness of -0.089 ± 0.031.
Work on V71F yielded an abundance fitness of -0.065 ± 0.041.
With V71G the abundance fitness was -0.061 ± 0.024.
With V71H the abundance fitness was -0.128 ± 0.043.
With V71I the abundance fitness was -0.077 ± 0.039.
Work on V71K yielded an abundance fitness of -0.031 ± 0.036.
V71M gave an abundance fitness of -0.088 ± 0.038.
Variant V71N has an abundance fitness of -0.087 ± 0.044.
Work on V71P yielded an abundance fitness of -0.047 ± 0.035.
V71Q gave an abundance fitness of -0.008 ± 0.036.
In the case of V71R, the abundance fitness is reported as -0.046 ± 0.024.
Variant V71S has an abundance fitness of -0.074 ± 0.027.
In the case of V71T, the abundance fitness is reported as -0.083 ± 0.029.
V71W gave an abundance fitness of -0.094 ± 0.032.
Work on V71Y yielded an abundance fitness of -0.183 ± 0.042.
For E72A, the abundance fitness was 0.04 ± 0.034.
Work on E72C yielded an abundance fitness of -0.034 ± 0.046.
E72D gave an abundance fitness of -0.048 ± 0.042.
Work on E72F yielded an abundance fitness of -0.111 ± 0.064.
Variant E72G has an abundance fitness of 0.024 ± 0.029.
With E72H the abundance fitness was -0.007 ± 0.053.
E72K gave an abundance fitness of -0.129 ± 0.043.
E72M showed an abundance fitness of -0.01 ± 0.052.
In the case of E72N, the abundance fitness is reported as -0.11 ± 0.053.
In the case of E72P, the abundance fitness is reported as -0.065 ± 0.042.
E72S gave an abundance fitness of 0.012 ± 0.035.
In the case of E72T, the abundance fitness is reported as 0.05 ± 0.036.
In the case of E72V, the abundance fitness is reported as 0.051 ± 0.038.
In the case of E72W, the abundance fitness is reported as -0.008 ± 0.037.
Variant E72Y has an abundance fitness of -0.01 ± 0.065.

Variants of: B2
Experiment: as above
Details: Homo sapiens
Work on R1D yielded an abundance fitness of -0.857 ± 0.34.
Variant R1E has an abundance fitness of -0.756 ± 0.22.
For R1G, the abundance fitness was -0.879 ± 0.15.
With R1I the abundance fitness was 0.241 ± 0.42.
With R1K the abundance fitness was -0.072 ± 0.21.
Work on R1S yielded an abundance fitness of -0.936 ± 0.17.
With R1T the abundance fitness was -0.314 ± 0.17.
For R1V, the abundance fitness was -0.381 ± 0.17.
With R1W the abundance fitness was -0.404 ± 0.27.
Work on L2A yielded an abundance fitness of -0.494 ± 0.13.
Work on L2C yielded an abundance fitness of -0.777 ± 0.34.
Variant L2G has an abundance fitness of -0.922 ± 0.2.
L2M showed an abundance fitness of -0.346 ± 0.042.
Work on L2P yielded an abundance fitness of -1.13 ± 0.48.
L2T showed an abundance fitness of -0.622 ± 0.31.
L2V showed an abundance fitness of -0.714 ± 0.18.
In the case of L2W, the abundance fitness is reported as -0.847 ± 0.22.
For L2Y, the abundance fitness was -0.936 ± 0.41.
Variant Y3A has an abundance fitness of -0.771 ± 0.37.
Variant Y3C has an abundance fitness of -0.64 ± 0.41.
Work on Y3F yielded an abundance fitness of -0.238 ± 0.21.
Variant Y3G has an abundance fitness of -0.955 ± 0.2.
In the case of Y3H, the abundance fitness is reported as -0.598 ± 0.24.
Work on Y3K yielded an abundance fitness of -0.948 ± 0.27.
In the case of Y3L, the abundance fitness is reported as -1.04 ± 0.49.
Work on Y3N yielded an abundance fitness of -0.633 ± 0.43.
Work on Y3P yielded an abundance fitness of -0.807 ± 0.38.
Variant Y3Q has an abundance fitness of -0.88 ± 0.35.
Y3R showed an abundance fitness of -0.846 ± 0.27.
Variant Y3V has an abundance fitness of -0.949 ± 0.18.
For Y3W, the abundance fitness was -0.324 ± 0.095.
For E4A, the abundance fitness was -0.129 ± 0.063.
With E4C the abundance fitness was -0.291 ± 0.13.
With E4D the abundance fitness was -0.153 ± 0.098.
In the case of E4F, the abundance fitness is reported as -0.347 ± 0.2.
Variant E4G has an abundance fitness of -0.348 ± 0.063.
In the case of E4H, the abundance fitness is reported as -0.571 ± 0.15.
E4I showed an abundance fitness of -0.746 ± 0.22.
With E4K the abundance fitness was -0.375 ± 0.14.
In the case of E4L, the abundance fitness is reported as -0.339 ± 0.083.
Work on E4M yielded an abundance fitness of -0.019 ± 0.26.
With E4N the abundance fitness was -0.261 ± 0.12.
E4P gave an abundance fitness of -0.341 ± 0.11.
Variant E4R has an abundance fitness of -0.582 ± 0.1.
E4S showed an abundance fitness of -0.027 ± 0.057.
In the case of E4T, the abundance fitness is reported as -0.123 ± 0.094.
E4W showed an abundance fitness of -0.78 ± 0.19.
E4Y gave an abundance fitness of -0.7 ± 0.25.
With R5A the abundance fitness was -0.309 ± 0.16.
R5D showed an abundance fitness of -0.175 ± 0.12.
R5G gave an abundance fitness of -0.105 ± 0.063.
Work on R5H yielded an abundance fitness of 0.185 ± 0.15.
Work on R5L yielded an abundance fitness of -0.029 ± 0.084.
In the case of R5M, the abundance fitness is reported as 0.047 ± 0.13.
Variant R5P has an abundance fitness of -0.788 ± 0.32.
For R5S, the abundance fitness was -0.144 ± 0.14.
Work on R5T yielded an abundance fitness of -0.747 ± 0.33.
With R5V the abundance fitness was -0.429 ± 0.079.
With R5W the abundance fitness was -0.203 ± 0.092.
E6A showed an abundance fitness of -0.284 ± 0.082.
With E6D the abundance fitness was -0.538 ± 0.19.
For E6G, the abundance fitness was -0.803 ± 0.1.
In the case of E6L, the abundance fitness is reported as -0.892 ± 0.32.
E6M gave an abundance fitness of -0.698 ± 0.48.
Work on E6N yielded an abundance fitness of -0.416 ± 0.43.
E6Q showed an abundance fitness of -0.445 ± 0.41.
With E6R the abundance fitness was -0.642 ± 0.096.
Work on E6T yielded an abundance fitness of -0.362 ± 0.21.
E6V showed an abundance fitness of -0.53 ± 0.15.
E6W gave an abundance fitness of -0.718 ± 0.15.
Variant E6Y has an abundance fitness of -0.64 ± 0.41.
For D7A, the abundance fitness was -0.248 ± 0.061.
With D7C the abundance fitness was -0.237 ± 0.099.
For D7E, the abundance fitness was -0.03 ± 0.093.
For D7F, the abundance fitness was -0.203 ± 0.17.
D7G gave an abundance fitness of -0.186 ± 0.057.
Work on D7H yielded an abundance fitness of -0.221 ± 0.27.
In the case of D7K, the abundance fitness is reported as -0.578 ± 0.15.
With D7L the abundance fitness was -0.554 ± 0.078.
Variant D7M has an abundance fitness of -0.241 ± 0.076.
D7P showed an abundance fitness of -0.846 ± 0.2.
Work on D7Q yielded an abundance fitness of -0.273 ± 0.14.
For D7R, the abundance fitness was -0.505 ± 0.085.
With D7S the abundance fitness was -0.277 ± 0.064.
D7T showed an abundance fitness of -0.995 ± 0.26.
With D7V the abundance fitness was -0.936 ± 0.12.
In the case of D7Y, the abundance fitness is reported as -0.098 ± 0.16.
With H8Y the abundance fitness was 0.111 ± 0.1.
Variant K9A has an abundance fitness of -0.129 ± 0.053.
In the case of K9C, the abundance fitness is reported as -0.103 ± 0.11.
With K9D the abundance fitness was -0.254 ± 0.083.
With K9E the abundance fitness was 0.017 ± 0.073.
In the case of K9F, the abundance fitness is reported as -0.559 ± 0.25.
With K9G the abundance fitness was -0.171 ± 0.047.
With K9H the abundance fitness was -0.174 ± 0.11.
Variant K9I has an abundance fitness of -0.68 ± 0.17.
In the case of K9M, the abundance fitness is reported as 0.212 ± 0.12.
In the case of K9N, the abundance fitness is reported as -0.085 ± 0.14.
Work on K9P yielded an abundance fitness of -0.728 ± 0.16.
With K9Q the abundance fitness was 0.117 ± 0.11.
For K9R, the abundance fitness was -0.132 ± 0.07.
With K9S the abundance fitness was -0.241 ± 0.087.
For K9T, the abundance fitness was -0.156 ± 0.096.
With K9V the abundance fitness was -0.402 ± 0.068.
With K9W the abundance fitness was -0.909 ± 0.36.
In the case of K9Y, the abundance fitness is reported as -0.467 ± 0.24.
G10A gave an abundance fitness of -0.976 ± 0.12.
For G10C, the abundance fitness was -0.905 ± 0.22.
In the case of G10D, the abundance fitness is reported as -0.731 ± 0.14.
G10F showed an abundance fitness of -0.717 ± 0.17.
Work on G10H yielded an abundance fitness of -0.818 ± 0.19.
Variant G10L has an abundance fitness of -1.06 ± 0.17.
For G10N, the abundance fitness was -0.655 ± 0.36.
Variant G10P has an abundance fitness of -0.951 ± 0.35.
G10Q gave an abundance fitness of -0.775 ± 0.21.
Work on G10R yielded an abundance fitness of -0.931 ± 0.14.
For G10S, the abundance fitness was -0.923 ± 0.15.
